Values belong to the binder of their own block, whether it stands above or below them.
Assays:
human FcRH5 [1] = target: T1, human FcRH5 (human, UniProt Q96RD9 16-977); experiment: FACS on RPMI8226-huFcRH5 cells, VHH-His
T1 construct: whole, on cells; also called huFcRH5; RPMI8226-huFcRH5
T1 sequence (looked up): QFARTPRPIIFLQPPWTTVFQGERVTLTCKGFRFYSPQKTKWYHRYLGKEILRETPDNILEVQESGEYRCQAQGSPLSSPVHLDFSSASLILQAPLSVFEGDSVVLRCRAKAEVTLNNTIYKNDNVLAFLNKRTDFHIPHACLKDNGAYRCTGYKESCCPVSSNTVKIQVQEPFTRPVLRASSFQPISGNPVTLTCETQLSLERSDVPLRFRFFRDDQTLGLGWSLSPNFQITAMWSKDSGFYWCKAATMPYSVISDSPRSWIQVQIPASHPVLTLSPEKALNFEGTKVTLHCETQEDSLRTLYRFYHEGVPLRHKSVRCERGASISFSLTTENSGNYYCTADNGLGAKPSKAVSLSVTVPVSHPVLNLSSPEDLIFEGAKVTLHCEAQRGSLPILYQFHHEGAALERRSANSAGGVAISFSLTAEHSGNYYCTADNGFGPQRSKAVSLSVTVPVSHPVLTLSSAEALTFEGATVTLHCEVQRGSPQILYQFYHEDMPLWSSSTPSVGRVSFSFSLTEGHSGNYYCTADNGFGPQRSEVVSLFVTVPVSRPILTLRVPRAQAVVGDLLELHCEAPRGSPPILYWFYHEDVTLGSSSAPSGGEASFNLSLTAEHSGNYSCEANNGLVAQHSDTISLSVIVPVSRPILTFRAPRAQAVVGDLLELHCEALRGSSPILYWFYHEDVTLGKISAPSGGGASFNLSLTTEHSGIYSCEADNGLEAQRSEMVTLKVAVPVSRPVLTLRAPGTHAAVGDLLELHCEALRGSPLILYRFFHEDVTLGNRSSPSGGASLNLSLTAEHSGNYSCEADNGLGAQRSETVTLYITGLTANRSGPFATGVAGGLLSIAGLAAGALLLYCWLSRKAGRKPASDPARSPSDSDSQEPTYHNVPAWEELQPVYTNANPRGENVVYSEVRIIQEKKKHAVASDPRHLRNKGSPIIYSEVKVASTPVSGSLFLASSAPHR

human BCMA [2] = target: T2, human BCMA (human, UniProt Q02223 1-184); experiment: FACS on RPMI8226 cells, Fc formatted
T2 construct: whole, on cells; Human is stated only for CHO-HuBCMA; also called HuBCMA; B-cell maturation antigen
T2 sequence (looked up): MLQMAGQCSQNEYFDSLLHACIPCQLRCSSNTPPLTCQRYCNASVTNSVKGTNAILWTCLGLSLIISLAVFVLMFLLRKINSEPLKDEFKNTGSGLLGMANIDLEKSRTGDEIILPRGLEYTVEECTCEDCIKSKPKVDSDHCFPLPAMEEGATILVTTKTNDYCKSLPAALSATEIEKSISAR

human GPRC5D [3] = target: T3, human GPRC5D (human, UniProt Q9NZD1 1-345); experiment: FACS on CHO-HuGPRC5D cells
T3 construct: whole, on cells; Human is stated only for CHO-HuGPRC5D; also called HuGPRC5D; GPRC5D on CHO-HuGPRC5D cells
T3 sequence (Q9NZD1 whole entry): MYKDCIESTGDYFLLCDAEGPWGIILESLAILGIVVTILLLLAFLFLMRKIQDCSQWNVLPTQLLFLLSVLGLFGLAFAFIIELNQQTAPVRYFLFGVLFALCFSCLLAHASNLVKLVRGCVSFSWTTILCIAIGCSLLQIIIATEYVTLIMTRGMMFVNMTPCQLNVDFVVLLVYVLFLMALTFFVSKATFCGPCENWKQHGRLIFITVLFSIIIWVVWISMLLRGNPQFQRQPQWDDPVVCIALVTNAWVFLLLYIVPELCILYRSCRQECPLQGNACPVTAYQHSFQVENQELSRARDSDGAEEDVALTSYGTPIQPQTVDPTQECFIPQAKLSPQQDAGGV

human GPRC5D [4] = target: T3, human GPRC5D; experiment: FACS on H929 cells
CD38 = target: T4, CD38 (UniProt P28907 1-300, limits assumed); experiment: FACS binding to RPMI8226 cells, VHH-His format
T4 construct: whole, on cells; also called CD38 on RPMI8226 cells; CD38 on H929 cells
T4 sequence (looked up): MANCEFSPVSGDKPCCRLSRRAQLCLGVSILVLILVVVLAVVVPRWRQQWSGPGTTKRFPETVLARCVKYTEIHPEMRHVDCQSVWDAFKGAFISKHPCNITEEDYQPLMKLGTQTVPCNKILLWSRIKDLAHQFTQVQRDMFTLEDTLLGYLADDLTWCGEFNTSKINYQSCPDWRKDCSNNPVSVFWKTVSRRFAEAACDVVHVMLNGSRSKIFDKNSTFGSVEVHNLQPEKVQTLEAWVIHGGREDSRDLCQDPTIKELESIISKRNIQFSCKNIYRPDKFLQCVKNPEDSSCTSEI

human BCMA [5] = target: T2, human BCMA; experiment: FACS binding to RPMI8226 cells, Fc format [upper panel RPMI8226]
human FcRH5 [6] = target: T1, human FcRH5; experiment: FACS binding to RPMI-huFCRH5 (HuFcRH5-RPMI8226) cells, VHH-His format
[7] = target: cynomolgus FcRH5 (cynomolgus); experiment: FACS on RPMI8226-cyFcRH5 cells, VHH-His

B1: FcRH5-VHH1 (VHH)
VHH: QVQFVESGGGLVQAGGSLRLSCAASGITVSRNDMGWYRQAPGKQRELVAIMNRVGSTDTADSVKDRFTISRDNTKNTLYLQMNNLKPEDTAVYYCNALNTVITWPWGQGTQVTVSSHHHHHH
EC50 (human FcRH5 [1]): 7.2 nM

B2: BCMA-VHH5 (Fc fusion)
chain: QVKLEESGGGLVQAGGSLRLSCAASGRTFSDYTVAWFRQAPGSEREFVAASVWTDGKPYYVDSVRGRFTISRDNAKNTVWLQMDSLQPDDTAVYYCQALTGGSWILDYWGQGTPVTVSS
notes: not shown: Fc of the Fc formatted construct
EC50 (human BCMA [2]): 72.2 nM

B3: GPRC5D-VHH2-H5 (VHH)
VHH: QVQLVESGGGLVQPGGSLRLSCAASGRTASAYVMGWFRQAPGKEREFVAGISGGAYYADSVKGRFTISRDNSKNTVYLQMNSLRAEDTAVYYCAAERGMRRLTESYQYDYWGQGTLVTVSS
notes: Humanized variant of GPRC5D-VHH2
EC50 (human GPRC5D [3]): 0.3 nM
EC50 (human GPRC5D [4]): 0.06 nM

B6: BCMA-VHH21 (Fc fusion)
chain: QVKLEESGGGLVQAGGSLSLSCKASVRYFSTYAMGWFRQAPGKEREFVAAISWSGGSTYYADSVKGRFTISRDNAKNTVYLEMNSLKPEDTAVYYCAAPYGSSQNLEYDYWGQGTQVTVSS
notes: as for B2
binding result (human BCMA [5]): no binding (tested: about 500 nM (log 2.7))

B7: BCMA-VHH22 (Fc fusion)
chain: HVQLVDSGGGLVQAGGSLRLSCAASGFTFDDYAMSWVRQAPGKGLEWVSAISWNGGSTYYAESMKGRFTISRDNTKNTLYLQMNSLKPEDSAVYYCVPVSHSDSVCGSPYMDYWGKGTLVTVSS
notes: as for B2
EC50 (human BCMA [2]): 49.2 nM

B8: BCMA-VHH24 (Fc fusion)
chain: QVKLEESGGGLVQAGGSLRLSCQVSGRTFASFAMAWFRQAPGKEREFVAGISWSGGFTSYADSVKGRFTISRDNAKHTVYLQMNSLKTEDTAMYYCGEWGGFSLLGQGTQVTVSS
notes: as for B2
binding result (human BCMA [5]): no binding (tested: about 500 nM (log 2.7))

The next lines start with the values.

EC50 (human GPRC5D [3]): 19.8 nM
EC50 (human GPRC5D [4]): 1.17 nM
B4: GPRC5D-VHH3-H9 (VHH)
VHH: QVQLVESGGGLVQPGGSLRLSCAASGIIFSASNLAWYRQAPGKQRELVAGVTGGGSINYADSVKGRFTISRDNAKNTIYLQMNSLRAEDTAVYYCNARRSYSHWGQGTLVTVSS
notes: Humanized variant of GPRC5D-VHH3

binding result (CD38): binds
B5: CD38-VHH4 (VHH)
VHH: QVQLVESGGGLVQPGGSLRLSCAASGFSLDYYHIGWFRQAPGKEREGISCISSSDGYTLYADSVKGRFTISRDNAKNTVYLQMNSLKPEDTAVYYCAASPRRLACAGSLYPPLSADFSSWGQGTQVTVSS

binding result (human FcRH5 [6]): no binding (tested: 1000 nM)
EC50 [7]: 97.2 nM
B9: FcRH5-VHH3 (VHH)
VHH: QVQLVESGGGSVQAGGSLRLSCVDSGHTLSTYAMGWFRQAPGKEREFVAAIARDGGATYLSGSAQGRATISRDNAKSTVYLQMNNLKPDDTAVYYCAASSMFSTAKRDYSYWGQGTQVTVSSHHHHHH
